Assay results taken from article PMC5500849, “Cobamide-mediated enzymatic reductive dehalogenation via long-range electron transfer” (Nature Communications, 2017).

Columns and labels:
purified protein [1] = substrate: Oc1ccc(Br)cc1Br; assay: purified protein; conditions: reduced methyl viologen 0.5 mM / Ti(III) citrate 1.4 mM, 100 mM Tris-HCl pH 7.5, 22 °C, no NH4+, kcat at Table 1, kcat includes further reduction to phenol
purified protein [2] = substrate: Oc1ccc(Br)cc1; assay: purified protein; conditions: reduced methyl viologen 0.5 mM / Ti(III) citrate 1.4 mM, 100 mM Tris-HCl pH 7.5, 22 °C, no NH4+, kcat at Table 1

B1: PceA (PceA–Strep) (Sulfurospirillum multivorans) (protein)
chain: AEKEKNAAEIRQQFAMTAGSPIIVNDKLERYAEVRTAFTHPTSFFKPNYKGEVKPWFLSAYDEKVRQIENGENGPKMKAKNVGEARAGRALEAAGWTLDINYGNIYPNRFFMLWSGETMTNTQLWAPVGLDRRPPDTTDPVELTNYVKFAARMAGADLVGVARLNRNWVYSEAVTIPADVPYEQSLHKEIEKPIVFKDVPLPIETDDELIIPNTCENVIVAGIAMNREMMQTAPNSMACATTAFCYSRMCMFDMWLCQFIRYMGYYAIPSCNGVGQSVAFAVEAGLGQASRMGACITPEFGPNVRLTKVFTNMPLVPDKPIDFGVTEFCETCKKCARECPSKAITEGPRTFEGRSIHNQSGKLQWQNDYNKCLGYWPESGGYCGVCVAVCPFTKGNIWIHDGVEWLIDNTRFLDPLMLGMDDALGYGAKRNITEVWDGKINTYGLDADHFRDTVSFRKDRVKKS
B1 was tested. Which Km (purified protein [1]) did it give?
Its Km is 95 µM.

And the kcat (purified protein [1])?
The kcat was 252 s⁻¹.

And the Km (purified protein [2])?
The Km was 99 µM.

And the kcat (purified protein [2])?
Its kcat is 809 s⁻¹.
